Laboratory results as given in article PMC2584968 (Nature, 2007).

Molecular target: HIV-1 gp120 fragment OD1 (HIV-1)
Experiment: SPR

B1: broadly neutralizing antibody b12 (antibody, V domains shown)
VH: QVQLVQSGAEVKKPGASVKVSCQASGYRFSNFVIHWVRQAPGQRFEWMGWINPYNGNKEFSAKFQDRVTFTADTSANTAYMELRSLRSADTAVYYCARVGPYSWDDSPQDNYYMDVWGKGTTVIVSS
VL: EIVLTQSPGTLSLSPGERATFSCRSSHSIRSRRVAWYQHKPGQAPRLVIHGVSNRASGISDRFSGSGSGTDFTLTITRVEPEDFALYYCQVYGASSYTFGQGTKLERK
- fold faster dissociation rate than on HXBc2 core gp120: ~15 fold
